Data as given in patent US20110177071A1 (PERSEID THERAPEUTICS, published 2011).
Numbering of substitutions follows the chain as printed.

T1: full-length human CD86 on HEK293 cells (human, UniProt P42081 24-329)
T1 sequence: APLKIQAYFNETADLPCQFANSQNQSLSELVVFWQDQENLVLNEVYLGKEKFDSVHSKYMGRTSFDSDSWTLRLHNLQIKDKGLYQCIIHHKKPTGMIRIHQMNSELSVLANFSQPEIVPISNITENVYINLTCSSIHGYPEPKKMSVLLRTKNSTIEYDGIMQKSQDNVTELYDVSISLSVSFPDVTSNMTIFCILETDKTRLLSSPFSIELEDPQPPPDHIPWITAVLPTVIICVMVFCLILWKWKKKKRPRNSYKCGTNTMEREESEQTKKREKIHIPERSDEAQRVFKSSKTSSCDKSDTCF

T2: human CD80-murine Ig fusion protein (human)
T2 construct: Bought (Ancell #510-820); also called hCD80-mIg; human CD80-murine IgG
T2 chain: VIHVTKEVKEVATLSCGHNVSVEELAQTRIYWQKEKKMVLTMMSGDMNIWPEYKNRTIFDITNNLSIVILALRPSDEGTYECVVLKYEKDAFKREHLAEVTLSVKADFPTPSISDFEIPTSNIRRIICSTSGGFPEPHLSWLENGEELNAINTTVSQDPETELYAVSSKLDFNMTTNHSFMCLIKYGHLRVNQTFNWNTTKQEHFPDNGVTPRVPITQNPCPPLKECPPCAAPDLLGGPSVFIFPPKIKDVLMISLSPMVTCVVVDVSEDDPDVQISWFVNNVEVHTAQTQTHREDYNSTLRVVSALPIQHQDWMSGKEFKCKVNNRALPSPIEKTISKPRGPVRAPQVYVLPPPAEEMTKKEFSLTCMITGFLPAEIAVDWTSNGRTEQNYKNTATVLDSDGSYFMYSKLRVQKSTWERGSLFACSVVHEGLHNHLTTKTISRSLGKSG

T3: human CD86-murine Ig fusion protein (human)
T3 construct: Bought (Ancell #509-820); also called hCD86-mIg
T3 chain: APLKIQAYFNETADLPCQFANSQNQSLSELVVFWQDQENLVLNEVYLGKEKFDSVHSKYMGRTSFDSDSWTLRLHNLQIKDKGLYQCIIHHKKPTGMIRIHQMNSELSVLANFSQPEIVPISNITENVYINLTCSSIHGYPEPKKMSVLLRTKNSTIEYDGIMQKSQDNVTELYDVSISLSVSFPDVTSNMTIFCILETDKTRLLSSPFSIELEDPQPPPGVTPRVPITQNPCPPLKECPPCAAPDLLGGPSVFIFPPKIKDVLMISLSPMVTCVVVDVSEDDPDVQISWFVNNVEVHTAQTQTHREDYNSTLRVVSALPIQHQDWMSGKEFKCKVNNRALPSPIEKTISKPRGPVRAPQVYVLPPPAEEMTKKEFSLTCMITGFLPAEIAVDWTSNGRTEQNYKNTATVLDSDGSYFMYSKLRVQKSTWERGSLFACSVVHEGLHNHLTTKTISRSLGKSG

B1: D2-IgG2 (Fc fusion)
chain: MHVAQPAVVLASSRGIASFVCEYESPHKANEIRVTVLRQANSQVTEVCAMTYMKGDELTFLDDPFCTGTFSGNQVNLTIQGLRAADTGLYICKVELMYPPPYYLGMGNGTQIYVIDPEPCPDSDERKCCVECPPCPAPPVAGPSVFLFPPKPKDTLMISRTPEVTCVVVDVSHEDPEVQFNWYVDGVEVHNAKTKPREEQFNSTFRVVSVLTVVHQDWLNGKEYKCKVSNKGLPAPIEKTISKTKGQPREPQVYTLPPSREEMTKNQVSLTCLVKGFYPSDIAVEWESNGQPENNYKTTPPMLDSDGSFFLYSKLTVDKSRWQQGNVFSCSVMHEALHNHYTQKSLSLSPG
B2: D3-54-IgG2 (Fc fusion)
chain: B1 chain with E24A, H27G, I32V, N41D, G55E, D56N, F65I, A85M, M106I
B3: D3-6-IgG2 (Fc fusion)
chain: B1 chain with H27G, N41G, K54M, F65S, M106F
notes: also called D3-06-IgG2
B4: D3-62-IgG2 (Fc fusion)
chain: B1 chain with E24A, H27G, N41D, G55E, F65S, A85M, M106I
B5: D3-73-IgG2 (Fc fusion)
chain: B1 chain with H27G, I32V, N41D, D56N, F65I, A85M, L104E, M106I
B6: D3-72-IgG2 (Fc fusion)
chain: B1 chain with H27G, N41D, D56N, F65S, A85M, L104E, M106I
B7: D3-34-IgG2 (Fc fusion)
chain: B1 chain with E24A, H27G, I32V, N41D, D56N, F65S, A85M, M106I
B8: D3-2-IgG2 (Fc fusion)
chain: B1 chain with H27G, N30T, N41G, F65S, M106F
notes: also called D3-02-IgG2; D3-02
B9: D3-39-IgG2 (Fc fusion)
chain: B1 chain with H27G, I32V, N41D, D56N, F65I, A85M, M106I
B10: D3-69-IgG2 (Fc fusion)
chain: B1 chain with H27G, N41D, F65S, A85M, L104E, M106I
B11: D3-56-IgG2 (Fc fusion)
chain: B1 chain with E24A, H27G, I32V, N41D, G55E, D56N, F65S, A85M, M106I
B12: D3-50-IgG2 (Fc fusion)
chain: B1 chain with E24A, H27G, I32V, N41D, F65I, A85M, M106I
B13: D3-65-IgG2 (Fc fusion)
chain: B1 chain with E24A, H27G, I32V, N41D, D56N, F65S, A85M, L104E, M106I
B14: D3-15-IgG2 (Fc fusion)
chain: B1 chain with H27G, N41D, F65S, A85M, M106F
B15: D3-70-IgG2 (Fc fusion)
chain: B1 chain with H27G, I32V, N41D, D56N, F65S, A85M, L104E, M106I
B16: D3-3-IgG2 (Fc fusion)
chain: B1 chain with H27G, I32V, N41G, F65S, M106F
notes: also called D3-03-IgG2
B17: D3-71-IgG2 (Fc fusion)
chain: B1 chain with E24A, H27G, N41D, F65S, A85M, L104E, M106I
B18: D3-52-IgG2 (Fc fusion)
chain: B1 chain with E24A, H27G, N41D, D56N, F65I, A85M, M106I
B19: D26-IgG2 (Fc fusion)
chain: B1 chain with S25A, I32V, Q39E, N41G, K54V, G55E, F65S, M106L
B20: D29-IgG2 (Fc fusion)
chain: B1 chain with S25A, N30D, Q39K, N41D, K54M, G55E, F65S, A85M, M106L
B21: D27-IgG2 (Fc fusion)
chain: B1 chain with H27G, I32V, Q39E, N41G, K54V, G55E, F65S, M106L
B22: D28-IgG2 (Fc fusion)
chain: B1 chain with S25A, I32V, N41G, K54M, G55E, F65S, M106L
B23: D31-IgG2 (Fc fusion)
chain: MHVAQPAVVLASSRGIASFVCEYEAPHNADEIRVTVLRQAGSQVTEVCAMTYMVEDELTFLDKSICTGTFSGNQVNLTIQGLRAMDTGLYICKVELMYPPPYYLGIGNGTQIYVIDPEPCPDSDERKCCVECPPCPAPPVAGPSVFLFPPKPKDTLMISRTPEVTCVVVDVSHEDPEVQFNWYVDGVEVHNAKTKPREEQFNSTFRVVSVLTVVHQDWLNGKEYKCKVSNKGLPAPIEKTISKTKGQPREPQVYTLPPSREEMTKNQVSLTCLVKGFYPSDIAVEWESNGQPENNYKTTPPMLDSDGSFFLYSKLTVDKSRWQQGNVFSCSVMHEALHNHYTQKSLSLSPG

Molecular target: T1, full-length human CD86 on HEK293 cells
Experiment: cell-based or functional assay

| Mean IC50 (nM), CD4+ T cell proliferation [nM] | Binder |
| --- | --- |
| 0.03 | B1 |
| 0.04 | B2 |
| 0.05 | B3 |
| 0.04 | B4 |
| 0.06 | B5 |
| 0.03 | B6 |
| 0.05 | B7 |
| 0.03 | B8 |
| 0.05 | B9 |
| 0.03 | B10 |
| 0.04 | B11 |
| 0.06 | B12 |
| 0.06 | B13 |
| 0.02 | B14 |
| 0.05 | B15 |
| 0.04 | B16 |
| 0.04 | B17 |
| 0.07 | B18 |

Molecular target: T2, human CD80-murine Ig fusion protein
Experiment: SPR Biacore, hCD80-mIg captured
Procedure: (§1) All Biacore™ analyses were performed on a Biacore™ 2000 system (GE Healthcare) at room temperature (RT, 25° C.). HBS-EP buffer (10 mM HEPES (pH 7.4), 150 mM NaCl, 3 mM EDTA, 0.005% surfactant P20) was used as the flow buffer for all experiments.
(§2) Rabbit anti-mouse IgG antibody (GE Healthcare, #BR-1005-14) was immobilized on CM5 sensor chips (GE Healthcare, #BR-1000-14) according to the manufacturer's protocol. Antibody was diluted to 30 μg/ml in immobilization buffer (10 mM sodium acetate, pH 5.0 (BR-1003-51)). At a flow rate of 5 μl/minute, sensor chip CM5 was activated with a 35 μl injection of a mixture of 1-Ethyl-3-[3-dimethylaminopropyl]carbodiimide hydrochloride (EDC) and N-hydroxysuccinimide (NHS) (made by mixing equal volumes of 11.5 mg/ml EDC and 75 mg/ml NHS) (GE Healthcare, #BR-1000-50), followed by a 35 μl injection of undiluted antibody. Un-reacted sites were quenched with 35 μl of 1M ethanolamine-HCL, pH 8.5 (GE Healthcare, #BR-1000-50). […] CTLA-4 ligands human CD80-murine Ig (hCD80-mIg) (Ancell, #510-820) or human CD86-murine Ig (hCD86-mIg) (Ancell, #509-820) were bound to antibody-coated sensor chips by injection of 10 μl or 16 μl, respectively, ligand solution (2 μg/ml protein in HBS-EP buffer [10 mM HEPES pH 7.4, 150 mM NaCl, 3 mM EDTA, 0.005% (v/v) surfactant P-20, GE Healthcare, #BR-1001-88]) at a flow rate of 10 μl/min.

| Binding Avidity (Relative to Orencia) [fold] | Kd [nM] | Binder |
| --- | --- | --- |
| > 2 | < 0.439 | B1 |
| – | 0.439 to 1.75 | B2 |
| – | 0.439 to 1.75 | B3 |
| > 2 | < 0.439 | B4 |
| > 2 | < 0.439 | B5 |
| – | 0.439 to 1.75 | B19 |
| > 2 | < 0.439 | B6 |
| – | 0.439 to 1.75 | B20 |
| – | 0.439 to 1.75 | B7 |
| – | 0.439 to 1.75 | B8 |
| – | 0.439 to 1.75 | B9 |
| – | 0.439 to 1.75 | B21 |
| > 2 | < 0.439 | B10 |
| – | 0.439 to 1.75 | B11 |
| – | 0.439 to 1.75 | B12 |
| – | 0.439 to 1.75 | B22 |
| > 2 | < 0.439 | B13 |
| – | 0.439 to 1.75 | B14 |
| > 2 | < 0.439 | B15 |
| – | 0.439 to 1.75 | B16 |
| > 2 | < 0.439 | B17 |
| – | 0.439 to 1.75 | B23 |
| – | 0.439 to 1.75 | B18 |

Molecular target: T3, human CD86-murine Ig fusion protein
Experiment: SPR Biacore, hCD86-mIg captured
Procedure: as §1, §2

| Kd [nM] | Binding Avidity (Relative to Orencia) [fold] | Binder |
| --- | --- | --- |
| 0.131 to 0.262 | – | B1 |
| < 0.131 | > 40 | B2 |
| 0.131 to 0.262 | – | B3 |
| < 0.131 | > 40 | B4 |
| < 0.131 | > 40 | B5 |
| < 0.131 | > 40 | B19 |
| < 0.131 | > 40 | B6 |
| < 0.131 | > 40 | B20 |
| 0.131 to 0.262 | – | B7 |
| 0.131 to 0.262 | – | B8 |
| 0.262 to 0.523 | – | B9 |
| < 0.131 | > 40 | B21 |
| < 0.131 | > 40 | B10 |
| < 0.131 | > 40 | B11 |
| 0.131 to 0.262 | – | B12 |
| < 0.131 | > 40 | B22 |
| < 0.131 | > 40 | B13 |
| < 0.131 | > 40 | B14 |
| < 0.131 | > 40 | B15 |
| 0.131 to 0.262 | – | B16 |
| < 0.131 | > 40 | B17 |
| 0.131 to 0.262 | – | B23 |
| 0.262 to 0.523 | – | B18 |
